Test results as given in article PMC10173331.
Where two headings read alike, the source gives them in different places.

Experiments:
[1] = target: T1, clusterin (apolipoprotein J) (UniProt P10909 23-449); assay: AuNP colorimetric aggregation assay
[2] = target: T1, clusterin (apolipoprotein J); assay: AuNP colorimetric aggregation assay; remark: listed apart in the source

T1 sequence (P10909 23-449): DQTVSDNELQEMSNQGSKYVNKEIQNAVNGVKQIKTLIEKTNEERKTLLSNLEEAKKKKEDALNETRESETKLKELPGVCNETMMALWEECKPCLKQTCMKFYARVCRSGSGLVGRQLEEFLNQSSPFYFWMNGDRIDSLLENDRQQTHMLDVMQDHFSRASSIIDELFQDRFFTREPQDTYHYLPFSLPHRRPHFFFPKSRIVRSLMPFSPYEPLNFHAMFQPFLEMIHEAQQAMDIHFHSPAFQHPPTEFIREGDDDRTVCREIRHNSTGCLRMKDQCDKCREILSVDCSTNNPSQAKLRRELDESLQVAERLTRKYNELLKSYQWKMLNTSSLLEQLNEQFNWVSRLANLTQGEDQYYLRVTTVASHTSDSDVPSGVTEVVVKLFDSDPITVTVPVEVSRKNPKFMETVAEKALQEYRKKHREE

| Binder | binding result [1] | binding result [2] |
| --- | --- | --- |
| CTCCTCTGACTGTAACCACGTTAGGCGAGAACATGTCAGT (ssDNA) [clusterin 2] | binds | – |
| clusterin 1 (ssDNA) DNA: CTCCTCTGACTGTAACCACGTTAGGCGAGAACATGTCAGTACGTCGACGTTCTACTTGCTGCATAGGTAGTCCAGAAGCC | – | binds |
